Source: patent publication US20250340659A1 (PETMEDIX, published 2025)
Changes are numbered by the printed parent chain. One block for each binder: values may come before it.

Key:
[1] = biological target: T1, canine OX40L, full length membrane form, expressed on HEK293 cells (canine); assay: flow cytometry
T1 construct: also called OX40L expressing HEK; HEK OX40L cells
T1 chain: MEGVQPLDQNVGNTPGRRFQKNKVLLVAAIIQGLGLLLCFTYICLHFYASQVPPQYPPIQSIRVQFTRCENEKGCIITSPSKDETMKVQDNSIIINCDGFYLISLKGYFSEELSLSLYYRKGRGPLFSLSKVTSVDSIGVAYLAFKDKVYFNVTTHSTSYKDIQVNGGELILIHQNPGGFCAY
In short: (§1)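 CHO supernatants at 1, 5 or 10 μg/ml in PBS/3% FBS incubated 30′ on ice with cells surface-expressing canine OX40L. Bound antibody detected with fluorescent anti-canine Fc secondary (1:1000, 30 min, dark) and measured by flow cytometry, with parental WT HEK signal subtracted where stated.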

[2] = biological target: T2, recombinant canine OX40L ECD-TNCc-HIS protein (canine); assay: SPR Koff (kd1)
T2 construct: also called Trimeric OX40L probe (HIS tag); trimeric canine OX40L
T2 chain: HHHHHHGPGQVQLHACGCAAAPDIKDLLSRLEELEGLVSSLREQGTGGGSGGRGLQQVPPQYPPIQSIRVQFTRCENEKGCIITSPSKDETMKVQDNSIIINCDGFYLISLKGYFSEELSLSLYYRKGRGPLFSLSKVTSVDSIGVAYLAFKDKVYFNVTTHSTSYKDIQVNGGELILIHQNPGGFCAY
Description: (§2) Affinity (Kd) of OX40L antibodies is measured by SPR, using a recombinant canine OX40L ECD-TNCc-HIS protein (Seq ID 811) as the capturing agent (FIG. 5B).
(§3) Functional affinity is determined using a Biakore 8K (Cytiva). in brief, purified OX40L ECD-TNCc-HIS protein is covalently bound at low density to the surface of a CM5 sensor chip (Cytiva) by amine coupling, using the manufacturer's recommended protocol. Candidate antibodies are subsequently passed across the chip surface at a range of concentrations and affinity determined using the dedicated software (Biacore Insight Evaluation Software). Curves were fitted using a bivalent analyte binding model.

[3] = biological target: T2, recombinant canine OX40L ECD-TNCc-HIS …; assay: SPR Koff (kd2)
Description: as §2, §3

[4] = biological target: T1, canine OX40L, full length membrane …; assay: cell-based or functional assay
[5] = biological target: T2, recombinant canine OX40L ECD-TNCc-HIS …; assay: SPR KD1, bivalent analyte model
Description: as §2, §3

[6] = biological target: T1, canine OX40L, full length membrane …; assay: flow cytometry, OX40L HEK minus WT HEK
In short: as §1

GEO mean OX40L expressing HEK [1]: 3.27e+06 | koff [2]: 0.0345 s⁻¹ | koff [3]: 0.0848 s⁻¹ | % Signal Inhibition Average [4]: 32% | % Signal Inhibition Rep1 [4]: 21% | % Signal Inhibition Rep2 [4]: 32.8% | % Signal Inhibition Rep3 [4]: 42% | Kd [5]: 5.76 nM | GEO mean difference [6]: 3.24e+06
B1: PMX054 (antibody, V domains shown)
VH: EVHLVESGGDLVKPEGSLRLSCVVSGFTFSSYDMSWVRQAPGKGLQWVAYISSDGRSTGYTDAVKGRFTISRDNAKKTLYLQMNSLRSEDTAVYYCAKETPRWGFDYWGQGTLVTVSS
VL: SYVLTQLPSVSVTLRQTARITCGGASIGSKNVYWHQQKLGQAPLLIIYDDSSRPSGIPERFSGANSGNTATLTISGALAEDEADYYCQVWDSSTSVFGGGTHLTVL
notes: also called PMX54

GEO mean OX40L expressing HEK [1]: 1.31e+06 | koff [2]: 0.00166 s⁻¹ | koff [3]: 0.0522 s⁻¹ | % Signal Inhibition Average [4]: 77.4% | % Signal Inhibition Rep1 [4]: 87.6% | % Signal Inhibition Rep2 [4]: 79.1% | % Signal Inhibition Rep3 [4]: 65.5% | Kd [5]: 21.6 nM | GEO mean difference [6]: 1.28e+06
B2: PMX036 (antibody, V domains shown)
VH: EVQLVESGGDLVKPGGSLRLSCVASGFTFSSYHMSWVRQAPGKGLQWVAYITSGGRTTSYADAVKGRFTISRDNAKNTLYLQMNSLRAEDTAVYYCASDLVLVLGGADYWGQGTLVTVSS
VL: SYELTQPPSVNVTLRETAHITCGGDSIGRKYVQWIQQNPGQAPVVIIYKDTNRPTGIPERFSGANSGNTATLTISGALAEDEADYYCQVGDSGTKAVFGGGTHLTVL
notes: also called PMX36

GEO mean OX40L expressing HEK [1]: 1.56e+06 | koff [2]: 0.0105 s⁻¹ | koff [3]: 0.000796 s⁻¹ | % Signal Inhibition Average [4]: 68.5% | % Signal Inhibition Rep1 [4]: 79.8% | % Signal Inhibition Rep2 [4]: 75% | % Signal Inhibition Rep3 [4]: 50.8% | Kd [5]: 100 nM | GEO mean difference [6]: 1.53e+06
B3: PMX038 (antibody, V domains shown)
VH: B2 VH with N84K, S98R, D108E
VL: B2 VL with T51S, T94S
notes: also called PMX38

GEO mean OX40L expressing HEK [1]: 1.05e+06 | koff [2]: 0.00935 s⁻¹ | koff [3]: 0.000627 s⁻¹ | % Signal Inhibition Average [4]: 66.4% | % Signal Inhibition Rep1 [4]: 61.7% | % Signal Inhibition Rep2 [4]: 75.4% | % Signal Inhibition Rep3 [4]: 62.1% | Kd [5]: 17 nM | GEO mean difference [6]: 1.02e+06
B4: PMX028 (antibody, V domains shown)
VH: B2 VH with L4M, S31D, R56S, T57S, L104V, A107G, D108V
VL: B2 VL with R29S, T51S, G100E, H103Q
notes: also called PMX28

GEO mean OX40L expressing HEK [1]: 1.39e+06 | koff [2]: 0.135 s⁻¹ | koff [3]: 0.000252 s⁻¹ | % Signal Inhibition Average [4]: 64.2% | % Signal Inhibition Rep1 [4]: 76.4% | % Signal Inhibition Rep2 [4]: 64.7% | % Signal Inhibition Rep3 [4]: 51.6% | Kd [5]: 7230 nM | GEO mean difference [6]: 1.36e+06
B5: PMX034 (antibody, V domains shown)
VH: B2 VH with S31N, T52V, R56S, T57S, S59T, N84T, V103L, L104V
VL: B2 VL with R29S, T51S
notes: also called PMX34

GEO mean OX40L expressing HEK [1]: 1.45e+06 | koff [2]: 0.00586 s⁻¹ | koff [3]: 1.71e-05 s⁻¹ | % Signal Inhibition Average [4]: 70% | % Signal Inhibition Rep1 [4]: 76.8% | % Signal Inhibition Rep2 [4]: 57.4% | % Signal Inhibition Rep3 [4]: 75.7% | Kd [5]: 7.2 nM | GEO mean difference [6]: 1.42e+06
B6: PMX032 (antibody, V domains shown)
VH: B2 VH with T69I, V103I
VL: B2 VL with T51N, T94S
notes: also called PMX32

GEO mean OX40L expressing HEK [1]: 1.46e+06 | koff [2]: 0.0103 s⁻¹ | koff [3]: 0.00101 s⁻¹ | % Signal Inhibition Average [4]: 60.3% | % Signal Inhibition Rep1 [4]: 55.8% | % Signal Inhibition Rep2 [4]: 69.8% | % Signal Inhibition Rep3 [4]: 55.4% | Kd [5]: 36.4 nM | GEO mean difference [6]: 1.43e+06
B7: PMX033 (antibody, V domains shown)
VH: B2 VH with N84K, D108E
VL: B2 VL with T51S, T94S
notes: also called PMX33

GEO mean OX40L expressing HEK [1]: 1.95e+06 | koff [2]: 0.000451 s⁻¹ | koff [3]: 1.5e-05 s⁻¹ | % Signal Inhibition Average [4]: 61.6% | % Signal Inhibition Rep1 [4]: 49.3% | % Signal Inhibition Rep2 [4]: 73.1% | % Signal Inhibition Rep3 [4]: 62.3% | Kd [5]: 12.5 nM | GEO mean difference [6]: 1.92e+06
B8: PMX047 (antibody, V domains shown)
VH: EVQLVESGGDLVKPGGSLRLSCVASGFIFSSYSMSWVRQAPEKGLQLVAGINSAGSSTYYTDAVKGRFTISRDNAKNTVYLQMNSLRAEDTAIYYCAKRWVFDFWGQGTLVTVSS
VL: HIVMTQTPLSLSVSPGEPASISCKASQSLLLSYGNTYLYWFRQKPGQSPQRLIYKVSNRDPGVPDRFSGSGSGTDFTLRISRVEADDAGVYYCGQGIQDPFTFGQGTKLEIK
notes: also called PMX47

GEO mean OX40L expressing HEK [1]: 3.03e+06 | koff [2]: 0.000587 s⁻¹ | koff [3]: 0.565 s⁻¹ | % Signal Inhibition Average [4]: 39.7% | % Signal Inhibition Rep1 [4]: 24.5% | % Signal Inhibition Rep2 [4]: 45.8% | % Signal Inhibition Rep3 [4]: 48.9% | Kd [5]: 3.4 nM | GEO mean difference [6]: 3e+06
B9: PMX053 (antibody, V domains shown)
VH: B8 VH with G15A, I28T, F104Y
VL: B8 VL with H1D, L30P, L31H, Y33L, V90I
notes: also called PMX53

GEO mean OX40L expressing HEK [1]: 3.26e+06 | koff [2]: 0.00366 s⁻¹ | koff [3]: 0.401 s⁻¹ | % Signal Inhibition Average [4]: 52.8% | % Signal Inhibition Rep1 [4]: 48.3% | % Signal Inhibition Rep2 [4]: 57.7% | % Signal Inhibition Rep3 [4]: 52.3% | Kd [5]: 5.43 nM | GEO mean difference [6]: 3.23e+06
B10: PMX055 (antibody)
heavy: EVQLEESGGDLVKPEGSLRLSCVVSGFTLSTFGMSWVRQAPGKGLQWVAYISSDGRSTSYTDAVKGRFTISRDNAKNTLYLQMNSLRTDDTAVYYCVQLGRGFGIDYWGHGTSLFVSSASTTAPSVFPLAPSCGSTSGSTVALACLVSGYFPEPVTVSWNSGSLTSGVHTFPSVLQSSGLYSLSSMVTVPSSRWPSETFTCNVAHPASKTKVDKPVPKRENGRVPRPPDCPKCPAPESLGGPSVFIFPPKPKDTLLIARTPEVTCVVVDLGREDPEVQISWFVDGKQMQTAKTQPREEQFNGTYRVVSVLPIGHQDWLKGKQFTCKVNHIGLPSPIERTISKARGQAHQPSVYVLPPSREELSKNTVSLTCLIKDFFPPDIDVEWQSNGQQEPESKYRTTPPQLDEDGSYFLYSKLSVDKSRWQRGDTFICAVMHEALHNHYTQKSLSHSPGK
VL: SYVLTQLPSKNVTLRQPAHIPCGGDNIGSKSVHWYQQKLGQAPVLIIYYDTSRPTGIPERFSGANSGNTATLTISGALAEDEADYYCQVWDSSAAVFGGGTHLTVL
notes: also called PMX55

GEO mean OX40L expressing HEK [1]: 3.14e+06 | koff [2]: 0.00737 s⁻¹ | koff [3]: 0.00737 s⁻¹ | % Signal Inhibition Average [4]: 57.8% | % Signal Inhibition Rep1 [4]: 51.1% | % Signal Inhibition Rep2 [4]: 64.3% | % Signal Inhibition Rep3 [4]: 58% | Kd [5]: 10 nM | GEO mean difference [6]: 3.11e+06
B11: PMX059 (antibody, V domains shown)
VH: EVHLVESGGDLVKPEGSLRLSCVVSGFTFSNYVMNWVRQAPGKGLQWVAFISGDGRSTTYTDAVKSRFTISRDNAKNTLYLQMSSLRTEDTAIYFCAKEKYSSGWSFEYWGQGTLVTVSS
VL: B10 VL with R15K, P21T, T51S, A95S
notes: also called PMX59

GEO mean OX40L expressing HEK [1]: 3.32e+06 | koff [2]: 0.00472 s⁻¹ | koff [3]: 0.22 s⁻¹ | % Signal Inhibition Average [4]: 66% | % Signal Inhibition Rep1 [4]: 52.1% | % Signal Inhibition Rep2 [4]: 72% | % Signal Inhibition Rep3 [4]: 73.9% | Kd [5]: 1.29 nM | GEO mean difference [6]: 3.29e+06
B12: PMX057 (antibody, V domains shown)
VH: EVQLVESGGDLVKPEGSLRLSCVVSGFTFNNYGMSWVRQAPGKGLQWVAYISIDGRSTSYTDAVKGRFTISRDNAKNTLYLHINSLRTEDTAVYYCTKLGRGFTFGYWGQGTLVTVSS
VL: B10 VL with R15K, P21T, V44A, T51S, A94V, A95S
notes: also called PMX57

GEO mean OX40L expressing HEK [1]: 3.16e+06 | koff [2]: 0.0148 s⁻¹ | koff [3]: 0.000624 s⁻¹ | % Signal Inhibition Average [4]: 44.3% | % Signal Inhibition Rep1 [4]: 27.3% | % Signal Inhibition Rep2 [4]: 57% | % Signal Inhibition Rep3 [4]: 48.5% | Kd [5]: 61 nM | GEO mean difference [6]: 3.13e+06
B13: PMX056 (antibody)
heavy: B10 heavy with E5V, T31S, F32Y, K43R, T88S, D89E, I105M
VL: B10 VL with R15K, P21T, L45V, T51S, S52T
notes: also called PMX56

GEO mean OX40L expressing HEK [1]: 3.34e+06 | koff [2]: 0.0144 s⁻¹ | koff [3]: 0.323 s⁻¹ | % Signal Inhibition Average [4]: 29.1% | % Signal Inhibition Rep1 [4]: 12.4% | % Signal Inhibition Rep2 [4]: 35.3% | % Signal Inhibition Rep3 [4]: 39.5% | Kd [5]: 8.46 nM | GEO mean difference [6]: 3.31e+06
B14: PMX058 (antibody, V domains shown)
VH: B12 VH with G26D, N30G, N31S, I53S, Y80H, H82Q, I83M, T97A, T104A
VL: B10 VL with R15K, P21T, T51S, S52N, A95S
notes: also called PMX58
